These results are taken from patent US20250109193A1 (FLAGSHIP PIONEERING INNOVATIONS VI, published 2025).

One assay has as its target T1, mouse TSLP (mouse, UniProt Q9JIE6 20-140).
T1 construct: also called mouse TSLP cytokine
T1 sequence (looked up): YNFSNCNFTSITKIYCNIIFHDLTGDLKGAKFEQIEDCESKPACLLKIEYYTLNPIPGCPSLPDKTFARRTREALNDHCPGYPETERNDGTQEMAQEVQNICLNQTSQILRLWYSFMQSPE
Put plainly: direct ELISA: plate coated with 2 µg/mL mouse TSLP, anti-human IgG-HRP, absorbance at 450 nm. In general terms: ELISA stands for enzyme-linked immunosorbent assay.

Another assay has as its target T2, human IL-7 (human, UniProt P13232 26-177).
T2 construct: also called hIL-7
T2 sequence (looked up): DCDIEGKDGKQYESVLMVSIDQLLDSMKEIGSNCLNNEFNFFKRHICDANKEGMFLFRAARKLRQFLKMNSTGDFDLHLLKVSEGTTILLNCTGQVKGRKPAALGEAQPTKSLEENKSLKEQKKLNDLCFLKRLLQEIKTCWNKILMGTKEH
Put plainly: direct ELISA: plate coated with 2 µg/mL human IL-7, anti-human IgG-HRP, absorbance at 450 nm.

Assay [1] concerns the target T3, human thymic stromal lymphopoietin (TSLP) (human, UniProt Q969D9 29-159). Put plainly: cell-based or functional assay.
In assay [2] the target is T4, cynomolgus monkey TSLP (cynomolgus monkey).
T4 chain: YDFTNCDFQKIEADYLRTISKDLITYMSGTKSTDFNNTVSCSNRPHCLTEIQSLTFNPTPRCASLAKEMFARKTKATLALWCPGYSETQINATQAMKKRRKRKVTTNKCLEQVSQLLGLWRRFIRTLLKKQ
Put plainly: cell-based or functional assay.

The target in assay [3] is T4, cynomolgus monkey TSLP. Nature of the assay: indirect ELISA, coated cyno TSLP; 95% CI in brackets.
Description: (§1) The next day, the plates were washed three times with ELISA wash buffer and blocked with ELISA assay diluent B (BioLegend) for one hour at room temperature (RT). […] Antibody binding was assessed using an 8-point titration curve in triplicates (1:3 serial dilution starting at 10 μg/mL). The plate was washed three times with ELISA wash buffer, and HRP-conjugated anti-human IgG-HRP secondary antibody (Jackson ImmunoResearch Laboratories, Inc.) was added to wells at a 1:5000 dilution in 1×ELISA assay diluent. Secondary antibody was added to detect binding of the primary antibody to the antigen. The plate was incubated for 30 minutes at room temperature with the secondary detection antibody, then the plates were washed three times with ELISA wash buffer and developed with TMB substrate solution (Invitrogen, Waltham, MA). The HRP enzymatic reaction was stopped after about 1 minute with acidic stop solution (Invitrogen), and the absorbance at 450 nm on a Biotek plate reader.
(§2) The EC₅₀ values were calculated using Graphpad Prism 9.2.0 by fitting a four-parameter non-linear regression curve to the average absorbance values of three technical replicates per concentration with three independent experiments. […] N=4 independent experiments with 3 technical replicates. […] N=3 independent experiments with 3 technical replicates.
In assay [4] the target is T3, human thymic stromal lymphopoietin …. Put plainly: indirect ELISA, coated human TSLP; 95% CI in brackets.
Description: as §1, §2

Description for mouse TSLP: as §1, §2

B1: Reference Antibody (antibody, human IgG2, lambda, V domains shown)
VH: QMQLVESGGGVVQPGRSLRLSCAASGFTFRTYGMHWVRQAPGKGLEWVAVIWYDGSNKHYADSVKGRFTITRDNSKNTLNLQMNSLRAEDTAVYYCARAPQWELVHEAFDIWGQGTMVTVSS
VL: SYVLTQPPSVSVAPGQTARITCGGNNLGSKSVHWYQQKPGQAPVLVVYDDSDRPSWIPERFSGSNSGNTATLTISRGEAGDEADYYCQVWDSSSDHVVFGGGTKLTVLG
notes: Comparator anti-TSLP antibody with an IgG2 heavy chain constant domain and lambda light chain
As for B1, the binding result with mouse TSLP and with human IL-7 was “no binding (tested: about 5 µg/ml)” in each case.

B2: AB-2b (antibody, human IgG1, lambda)
heavy: QMQLVESGGGVVQPGRSLRLSCAASGFTFRTYGMHWVRQAPGKGLEWVAVVWYDGSYTHYADSVKGRFTITRDNSKNTLNLQMNSLRAEDTAVYYCARSPQWEEIFEAMDIWGQGTMVTVSSASTKGPSVFPLAPSSKSTSGGTAALGCLVKDYFPEPVTVSWNSGALTSGVHTFPAVLQSSGLYSLSSVVTVPSSSLGTQTYICNVNHKPSNTKVDKRVEPKSCDKTHTCPPCPAPELLGGPSVFLFPPKPKDTLYITREPEVTCVVVDVSHEDPEVKFNWYVDGVEVHNAKTKPREEQYNSTYRVVSVLTVLHQDWLNGKEYKCKVSNKALPAPIEKTISKAKGQPREPQVYTLPPSREEMTKNQVSLTCLVKGFYPSDIAVEWESNGQPENNYKTTPPVLDSDGSFFLYSKLTVDKSRWQQGNVFSCSVMHEALHNHYTQKSLSLSPGK
light: SYVLTQPPSVSVAPGQTARITCGGNNIGSKSVHWYQQKPGQAPVLVVYDDSDRPSWIPERFSGSNSGNTATLTISRGEAGDEADYYCQIWDSSSSLVVFGGGTKLTVLGQPKAAPSVTLFPPSSEELQANKATLVCLISDFYPGAVTVAWKADSSPVKAGVETTTPSKQSNNKYAASSYLSLTPEQWKSHRSYSCQVTHEGSTVEKTVAPTECS
For the molecule B2, in assay [1], the “IC50, human TSLPR/IL-7Rα Ba/F3 STAT5-luciferase assay” value was 0.03 µg/mL. The “IC50, cyno TSLPR/IL-7Rα Ba/F3 STAT5-luciferase assay” value with cynomolgus monkey TSLP [2] turned out to be 0.04 µg/mL. Besides, the EC80 (in general, the concentration needed for an effect of 80%) in the assay with cynomolgus monkey TSLP [3] stood at 0.1 µg/mL. Moreover, in assay [4], the EC50 (commonly the concentration giving half of the maximal effect) is 0.03 µg/mL, it took 0.1 µg/mL to reach the 80% level (EC80) and it took 0.18 µg/mL to reach the 90% level (EC90). The binding result in the assay with mouse TSLP is given as “no binding (tested: about 5 µg/ml)”.
